Reference: paper PMC5352466 (Bioconjugate chemistry, 2017)

Experiment: Pharmacokinetics study in mice after tail vein injection
Assay type: in vivo
Details: fasted CD1 mice, i.v. tail vein, 16 Qg/kg of insulin, 3-60 min, ELISA, n = 5

Q: Which “plasma concentration of insulin after injection” value does the source give for insulin here?
A: not detectable at any time point
